Experimental findings from US11142588B2, “Polypeptides which bind C-X-C chemokine receptor type 4 (CXCR4) and methods of treating or reducing the risk of fibrosis and cancer” (AdAlta Limited, priority 2015, dated 2021) are described below.

Holding throughout (format): cell-based
For assay [1], the system named is human fibrocytes. The experiment in a line: Binding to human fibrocytes (confocal microscopy). Conditions: CD45 positive cells of PBMCs. How it is done:
PBMCs were smeared on a microscope slide and fixed with acetone at 4° C. for 10 minutes. Following three times washing and rehydration with PBS the slides were incubated with mouse antiFLAG 1:100 dilution over night at 4° C. After washing the slides were incubated with Goat anti-mouse Alex Fluor 568 (to detect i-body by binding anti FLAG) at room temperature for 1 hour. The slides were then washed and incubated with Mouse anti-CD-45 FITC labeled antibody over night at 4° C. After further washing the slides were and mounted with ProLong Gold antifade mountant containing DAPI. Images were captured by using Nikon A1 confocal microscope.

In assay [2] the target is T1, CCR4 (Homo sapiens, UniProt P51679).
T1 sequence (P51679 1-360): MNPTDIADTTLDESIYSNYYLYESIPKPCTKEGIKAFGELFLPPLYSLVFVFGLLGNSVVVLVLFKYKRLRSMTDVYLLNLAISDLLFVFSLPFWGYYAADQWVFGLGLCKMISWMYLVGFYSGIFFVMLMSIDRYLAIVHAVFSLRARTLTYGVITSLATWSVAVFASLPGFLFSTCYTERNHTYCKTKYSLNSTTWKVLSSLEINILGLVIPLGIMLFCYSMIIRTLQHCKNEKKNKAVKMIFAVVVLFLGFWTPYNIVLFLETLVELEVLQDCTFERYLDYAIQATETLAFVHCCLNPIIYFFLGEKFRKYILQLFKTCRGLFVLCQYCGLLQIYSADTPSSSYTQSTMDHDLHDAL
The experiment in a line: PathHunter (DiscoverX) β-arrestin assay, CCR4. How it is done: (FIG. 9) The PathHunter® β-Arrestin assay (DiscoveRx) was performed according to the manufacturer's protocol. Cells were seeded into white walled, 384-well tissue culture-treated microplates (Corning) and normalized at 5,000 cells (or 10,000 cells for CXCR4) in a total volume of […]. Cell growth was at 37° C. (5% CO2, 95% relative humidity). […] Agonists were then added at the EC80 concentration and incubation was continued at 37° C. for 90 min (or 180 min for CCR1). Assay signal was generated through a single addition of 15 μL (50% v/v) of PathHunter Detection reagent cocktail, followed by 1 h incubation at room temperature. Microplates were read following signal generation with a PerkinElmer Envision instrument for chemiluminescent signal detection of relative light units (RLU).

Assay [3] addresses CXCR4 (Homo sapiens, UniProt P61073). The assay can be described thus: β-arrestin BRET assay, antagonist mode with 100 nM SDF-1. On the set-up: expressed in transfected cells; host or cells: HEK293FT. Conditions: read-out: IC50 (nM) in β-Arrestin BRET assay (Antagonist mode in the presence of 100 nM SDF-1). In a few lines:
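Ten concentrations of i-body with 100 nM SDF-1 were applied to transiently transfected HEK293FT cells carrying CXCR4/Rluc8 donor and β-arrestin2/Venus acceptor. Emissions at 400-475 and 520-540 nm were read at 37 °C, and the vehicle-subtracted ratio gave the BRET signal (four independent duplicate experiments).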
For orientation: In BRET a luciferase serves as donor, and the signal depends on an acceptor being close.

Broadly, the IC50 is the concentration at which inhibition is half-maximal.

CXCR4, sequence (P61073 whole entry): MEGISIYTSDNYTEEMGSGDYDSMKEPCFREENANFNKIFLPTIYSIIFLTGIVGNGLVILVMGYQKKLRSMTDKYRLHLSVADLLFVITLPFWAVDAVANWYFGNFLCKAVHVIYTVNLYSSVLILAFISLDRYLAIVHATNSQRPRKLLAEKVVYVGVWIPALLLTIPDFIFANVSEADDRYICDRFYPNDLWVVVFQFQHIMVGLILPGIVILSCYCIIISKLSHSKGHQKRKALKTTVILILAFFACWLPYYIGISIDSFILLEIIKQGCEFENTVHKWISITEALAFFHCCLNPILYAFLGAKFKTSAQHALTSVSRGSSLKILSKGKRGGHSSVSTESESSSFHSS

Turning to “AM3-114: affinity matured CXCR4 i-body, SEQ ID NO: 40”, the “binding to human fibrocytes” value in assay [1] was “capable of binding to human fibrocytes”.

B1: AM3-523: affinity matured CXCR4 i-body, SEQ ID NO: 56 (protein)
chain: LQVDIVPSQGEISVGESKFFLCQVAGSGSHMRISWFSPNGEKLTPNQQRISVVWNDDSSSTLTIYNANIDDAGIYKCVVWVGGYRHRALVLGEATVNVKIFQ
modifications: protein sequence encoding AM3-523
As to B1, the CCR4 activity in assay [2] was −2%. Also, in assay [3], the IC50 amounted to 12700 nM.
